Measurements as given in patent US20040191240A1, “Composition and method for nerve regeneration” (priority 2003, published 2004).

Key:
[1] = tested on: male Wistar rats; assay: Spinal cord injury (dorsal half dissected, ninth thoracic vertebra), agent pumped to the injured site; assay type: in vivo, rat; settings: species not stated
Method: 200 g male Wistar rats were used. After the ninth thoracic vertebrae laminectomy was performed, the dorsal half of the spinal cord was dissected. A continuous osmotic pump was used to continuously administer either TAT(PTD domain)-fused Pep5 (TAT-[…]) (SEQ ID NO. 2) or TAT(PTD domain)-fused control peptide (TAT-[…]) (SEQ ID NO. 15) to the injured site for 6 weeks ([…]). In this case, the tip of a tube connected to the pump was left in the medullary space. After spinal cord injury, the functional recovery was assessed using the BBB score. The animals were observed on day 7, 14, 21, 28, 35, and 42 after injury. These experiments were carried out using techniques described in Fournier A. E., Takizawa, B. T., Strittmatter, S. M., J. Neurosci. 2003, 23, 1416-1423.
200 g male Wistar rats were used. After the ninth thoracic vertebrae laminectomy was performed, the dorsal half of the spinal cord was dissected. A continuous osmotic pump was used to continuously administer either TAT-fused Pep5 or TAT (PTD domain)-fused control peptide to the injured site.

[2] = target: T1, RhoA complexed with Rho GDI (Bos taurus, UniProt P19803); assay: In vitro nucleotide exchange assay; assay type: biochemical; settings: high Mg2+; 50 nM complex, 90 nM GST-Dbl
T1 construct: GST (N, cleaved yes); made in house; host or cells: yeast (RhoA, from membranes); E. coli (Rho GDI, pGEX)
T1 sequence (P19803 1-204): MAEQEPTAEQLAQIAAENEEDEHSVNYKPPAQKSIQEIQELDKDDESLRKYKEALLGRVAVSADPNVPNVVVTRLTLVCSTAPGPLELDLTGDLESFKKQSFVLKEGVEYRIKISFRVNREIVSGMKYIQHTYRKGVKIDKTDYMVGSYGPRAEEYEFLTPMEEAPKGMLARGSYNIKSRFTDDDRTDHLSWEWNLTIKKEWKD
Method: Lipid-modified RhoA was purified from yeast membranes as described (Forget, M. A., Desrosiers, R. R., Gingras, D. & Beliveau, R., Biochem. J. 361, 243-54(2002)). [^3H]GDP- or GDP-RhoA complexed with Rho GDI was obtained by first incubating GDP-RhoA with or without [^3H]GDP, followed by incubation with Rho GDI for 30 min, as described previously (Takahashi, K. et al., J. Biol. Chem. 272, 23371-23375 (1997)). The sample, subjected to gel filtration, was equilibrated with 20 mM Tris-HCl (pH 7.5) containing 5 mM MgCl2, 1 mM dithiothreitol and 0.1% CHAPS. The GDP dissociation and GTP binding assays were carried out by the filter binding method as described previously (Hart, M. J., Eva, A., Evans, T., Aaronson, S. A. & Cerione, R. A., Nature 354, 311-314 (1991)). In the [^3H]GDP dissociation assay, 50 nM of the complex was incubated for 20 min with various concentrations of GST-fused proteins in a reaction mixture (50 μl) containing 30 mM Tris-HCl (pH 7.5), 5 mM or 0.5 μM MgCl2, 1 (for low Mg) or 10 (for high Mg) mM EDTA, 0.1 mM GTP, 1 mM dithiothreitol, 0.12% CHAPS and 0.2mg/ml bovine serum albumin. In the [^35S] GTPγS binding assay, the complex was incubated as described above except that 1 μM [^35S] GTPγS was used instead of 0.1 mM GTP. At the indicated time, an aliquot of the reaction sample was removed, and passed through nitrocellulose filters (IPVH 000, Millipore). […]

B1: p75 in which alanine was replaced with valine at amino acid 423: p75 positions 273-427 of SEQ ID NO. 4 with alanine replaced with valine at amino acid 423 (protein)
chain: KRWNSCKQNKQGANSRPVNQTPPPEGEKLHSDSGISVDSQSLHDQQPHTQTASGQALKGDGGLYSSLPPAKREEVEKLLNGSAGDTWRHLAGELGYQPEHIDSFTHEACPVRALLASWATQDSATLDALLAALRRIQRADLVESLCSESTVTSPV
modifications: Homo sapien
[1]
  nerve regeneration, similar experiments with modified amino acids (Example 2-8): nerve regeneration was similarly observed

B2: p75 ICD: GST-fused intracellular domain (ICD) of p75 (protein)
chain: KRWNSCKQNKQGANSRPVNQTPPPEGEKLHSDSGISVDSQSLHDQQTHTQTASGQALKGDGNLYSSLPLTKREEVEKLLNGDTWRHLAGELGYQPEHIDSFTHEACPVRALLASWGAQDSATLDALLAALRRIQRADIVESLCSESTATSPV
modifications: left off: a dimerising Fc or GST
[2]
  Dbl stimulated dissociation of GDP from GDP-RhoA complexed with Rho GDI: showed the inhibitory effect to the same extent as p75 HD
